The values below come from article PMC5700378.

In general, Kd refers to the equilibrium constant for the complex coming apart. A high value points to a looser complex.

The assay deals with PrP^Sc enriched from elk brain infected with chronic wasting disease (elk) (UniProt P67986). Kind of assay: SPR. For orientation: In SPR one partner is held on a chip, and binding of the other changes the refractive index at the surface.
Chain of UniProt P67986 (P67986 25-233 limits assumed): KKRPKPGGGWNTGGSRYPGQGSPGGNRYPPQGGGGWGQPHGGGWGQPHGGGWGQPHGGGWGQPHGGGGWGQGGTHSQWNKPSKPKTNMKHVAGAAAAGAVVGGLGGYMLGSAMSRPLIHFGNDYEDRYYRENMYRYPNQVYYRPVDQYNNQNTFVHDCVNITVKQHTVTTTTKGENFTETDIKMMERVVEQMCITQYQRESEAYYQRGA

As for “purified full-length CD21 (from UniProt P20023 21-1033) (receptor)”, the Kd worked out at 16 nM.
